Measurements: IntAct's records for PubMed 21965663

These substances were tested against dyr1a_mouse Dyrk1a (UniProt Q61214).

Chain of Calcipressin-1 (Homo sapiens), P53805-2 S112A (P53805 other isoform, or with tags, fused parts or gaps S112A): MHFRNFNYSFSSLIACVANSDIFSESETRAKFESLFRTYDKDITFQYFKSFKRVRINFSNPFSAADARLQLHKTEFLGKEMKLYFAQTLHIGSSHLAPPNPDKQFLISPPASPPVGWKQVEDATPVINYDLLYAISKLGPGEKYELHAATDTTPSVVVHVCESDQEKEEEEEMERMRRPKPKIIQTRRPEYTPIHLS
Chain of Calcipressin-1 (Homo sapiens), P53805-2 S112A;T192A (P53805 other isoform, or with tags, fused parts or gaps S112A;T192A): as the sequence (P53805 other isoform, or with tags, fused parts or gaps S112A) above
Chain of Calcipressin-1 (Homo sapiens), P53805-2 T192A (P53805 other isoform, or with tags, fused parts or gaps T192A): as the sequence (P53805 other isoform, or with tags, fused parts or gaps S112A) above

effect of a mutation on the interaction | Substance
decreasing interaction | Calcipressin-1 (Homo sapiens), P53805-2 S112A
disrupting interaction | Calcipressin-1 (Homo sapiens), P53805-2 S112A;T192A
decreasing interaction | Calcipressin-1 (Homo sapiens), P53805-2 T192A
